Results as given in patent US11142588B2, “Polypeptides which bind C-X-C chemokine receptor type 4 (CXCR4) and methods of treating or reducing the risk of fibrosis and cancer” (AdAlta Limited, priority 2015, dated 2021).
Like-named read-outs stand apart in the source and are kept apart here.

How the values were obtained:
[1] = test system: Ramos tumor cells; details: previous report, Kuhne et al 2013; cited from earlier work
[2] = test system: CCL2 and CCL5 protein; test: CCL2, CCL5, CXCL12 ELISA of fibroblast conditioned supernatants; type: cell-based, human; details: 48 hours
From the text: Various reports indicate that CXCR4 signals in conjunction with other chemokine receptors, including CCR2.

[3] = test system: CCRF-CEM cells; test: Immunohistochemistry staining of tumours in spleen and liver of SCID/bg mice; details: 130 μg/ml
Protocol: Tissues were fixed in 10% neutral buffered formalin overnight and subsequently transferred into tissue cassettes and placed in 70% ethanol. The tissues were then paraffin embedded. Slides containing 4 μm sections were deparaffinized and hydrated by incubating them in two changes of xylene for five min each, followed by two changes of 100% ethanol for 3 min each, 70% ethanol for 2 min, 50% ethanol for 2 min, and distilled water for 5 min. Antigen retrieval was performed by incubating the slides in 10 mM Citric acid solution (pH 6.0) in an 80° C. oven overnight. The slides were subsequently washed in PBS and permeabilized in 10% methanol containing 0.4% H2O2 for 30 min. […] All slides were subsequently stained with biotinylated anti-His tag antibodies (Miltenyi Biotech) and developed using an HRP-DAB cell and tissue staining kit according to the manufacturer's instructions (R&D systems).

[4] = test system: normal and IPF lung fibroblasts; test: Wound healing invasion assay of lung fibroblasts; type: cell-based, human; details: 130 μg/ml
Protocol: To determine the role of CXCR4 and CXCL12 in fibroblast invasion, normal and IPF lung fibroblasts were utilized in a wound healing invasion assay. ImageLock 96 well plates (Essen Bioscience) were coated with 50 μg/ml of Basement membrane extract (BME; Trevigen) for one hour at room temperature. Normal, and fibroblasts generated from lung biopsies of idiopathic pulmonary fibrosis (IPF) patients showing slow progression or rapid progression of the disease were plated (36,000 cells per well) on the BME-coated plates and incubated overnight. […] The BME was allowed to polymerize by incubating the plate at 37° C. for 15 minutes. The plates were then inserted into an IncuCyte Zoom imaging system and images were acquired every 2 hours for approximately 50 hours. Invasion was quantified using IncuCyte software (Essen Bioscience).

[5] = test system: Ramos tumor cells; test: Apoptosis assay (annexin V / propidium iodide flow cytometry); type: cell-based, human; details: annexin V and propidium iodide double positive, 24 or 72 hours
Protocol: The ability of an i-body of the invention to induce apoptosis in Ramos tumor cells (a human Burkitt's lymphoma cell line) was examined in an apoptosis assay according to the methods as described in Mishra M et al (2011) J Cell Mol Med 15(11):2462-77. I-bodies were incubated with Ramos cells and examined by flow cytometry after 24 or 72 hours. The cells were stained for annexin V and propidium iodide which are classic markers for apoptosis. Cells which were double positive were assessed to have become apoptotic.

[6] = Laser induced choroidal neovascularisation model; type: in vivo, mouse; details: intravitreal, 1 μl up to 20 mg/ml
Protocol: The laser induced choroidal neovascularisation (CNV) is a well characterised and accepted model of choroidal neovascularisation (Fletcher E L et al. (2011) Prog Mol Biol Transl Sci 100:211-286). It is also a rapid method for determining the efficacy of potential treatments that target angiogenesis and fibrosis. Briefly, up to four laser spots are applied to the posterior eye using a continuous wave photocoagulation laser ([…] diode). The laser energy is high enough to create a break in Bruch's membrane. During the following 7-14 days, growth of blood vessels from the choroid into the retina occurs, and is quantified either immuocytochemically, or using fluorescein angiography.
Mice were treated as below: • Group 1 (n=10): laser both eyes-vehicle in one eye; i-body in the other • Group 2 (n=10): Laser one eye (no i-body); other eye unlasered. • The i-body drug was injected intravitreally in 1 μl volume at a concentration up to 20 mg/ml.
The expression of genes associated with angiogenesis and fibrosis was examined. Total RNA was isolated from the retina and RPE/choroidal samples using commercial spin columns (RNeasy, Qiagen, Valencia Calif.). A PCR gene array was used to assess the expression of 84 genes involved angiogenesis or fibrosis (Qiagen). Briefly, total RNA samples from untreated, laser treated eyes and untreated fellow eyes (n=9 each group, each 25 ng) were pooled within their respective treatment groups (3 independent experiments containing 3 pooled samples), reversed transcribed (RT2 first strand, Qiagen) and then underwent pre-amplification of the cDNA target templates (RT2 pre-AMP, Qiagen). Samples were added to a commercial mastermix (RT2 SYBR green mastermix, Qiagen) and amplified for 40 cycles (ABI 7900HT, Life Technologies, Grand Island N.Y.). Three independent arrays were performed for each treatment group. The data were analysed using delata delta Ct (ΔΔCt), expressed as fold change and regulation assessed using an unpaired t-test.

[7] = test system: ACTA2, COL1A1, COL3A1 and FN1 transcripts; test: qPCR of pro-fibrotic transcripts in lung fibroblasts; type: cell-based, human; details: 130 μg/ml, 48 hours
Protocol: After 48 hours, RNA was extracted using Trizol reagent and reverse transcribed into cDNA using superscript II reverse transcriptase (Life technology) as previously described (Trujillo et al Sci Transl Med 2010 2; 57ra82). Complementary DNA (cDNA) was subsequently loaded into a Taqman plate and gene expression analysis were performed using predesigned primers for COL1A1, COL3A1, FN1, and aSMA. All Taqman analysis was performed using an Applied Bio system's Viia 7 instrument (Life technology). The results were then exported, normalized to 18s RNA expression and fold change analysis were calculated using Data Assist software (Life technologies).

[8] = Binding to null lipoparticles (off-target control)
Protocol: (FIGS. 2A-2C, 5A-5C, 11A-11D, 17A-17B) Kinetic binding analysis of selected i-bodies with immobilized CXCR4 lipoparticles were performed at 25° C. using Biacore T200 instrument (GE Healthcare, Uppsala, Sweden). Streptavidin immobilization was performed in 1×HBS-P+ running buffer (10 mM HEPES, 150 mM NaCl, 0.05% [v/v] Tween-20). Amine coupling kit (GE Healthcare) and the instructions therein were utilized for the attachment of Streptavidin (Sigma; diluted to 100 μg/mL in 10 mM sodium acetate buffer pH 4.5) in all four channels on the sensor chip surface simultaneously, resulting in >6,000 RU of Streptavidin being coupled (1 RU=1 pg protein/mm^2). All binding experiments involving lipoparticles were performed with 1×HBS/BSA (10 mM HEPES, 150 mM NaCl, 1 mg/mL BSA) as instrument running buffer. Biotinylated CXCR4 lipoparticles (Integral Molecular, Cat #LEV-101B; 3.6 U/mL as described in WO 2005/042695) were typically diluted 1 in 20 in the running buffer and immobilized onto a Streptavidin containing channel by injecting at […] for 1,800 sec resulting in captured response levels of greater than 2,500 RU. […] In order to determine binding kinetics, serial dilutions (three-fold) of i-bodies diluted in 1×HBS/BSA were injected over immobilized lipoparticles with the association and dissociation phases monitored for 60 sec and 600 sec, respectively. […]

[9] = target: CXCR4 (Homo sapiens, UniProt P61073); test: β-arrestin BRET assay, antagonist mode with 100 nM SDF-1; type: cell-based; set-up: expressed in transfected cells; host or cells: HEK293FT; details: various concentrations
Chain of CXCR4 (P61073 whole entry): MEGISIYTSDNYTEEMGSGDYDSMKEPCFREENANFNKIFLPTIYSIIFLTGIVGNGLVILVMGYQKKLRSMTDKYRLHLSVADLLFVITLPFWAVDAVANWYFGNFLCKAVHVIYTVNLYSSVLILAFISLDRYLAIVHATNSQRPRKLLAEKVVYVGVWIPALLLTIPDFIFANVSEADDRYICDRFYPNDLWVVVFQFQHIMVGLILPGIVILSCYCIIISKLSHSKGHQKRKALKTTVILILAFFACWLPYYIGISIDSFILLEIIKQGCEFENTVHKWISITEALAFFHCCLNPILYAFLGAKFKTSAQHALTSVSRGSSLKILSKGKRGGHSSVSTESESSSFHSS
Outline: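 Ten concentrations of i-body with 100 nM SDF-1 were applied to transiently transfected HEK293FT cells carrying CXCR4/Rluc8 donor and β-arrestin2/Venus acceptor. Emissions at 400-475 and 520-540 nm were read at 37 °C, and the vehicle-subtracted ratio gave the BRET signal (four independent duplicate experiments).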

[10] = target: CCR5 positive lipoparticles (Homo sapiens, UniProt P51681); test: ELISA binding to CCR5 positive lipoparticles
Chain of CCR5 positive lipoparticles (P51681 whole entry): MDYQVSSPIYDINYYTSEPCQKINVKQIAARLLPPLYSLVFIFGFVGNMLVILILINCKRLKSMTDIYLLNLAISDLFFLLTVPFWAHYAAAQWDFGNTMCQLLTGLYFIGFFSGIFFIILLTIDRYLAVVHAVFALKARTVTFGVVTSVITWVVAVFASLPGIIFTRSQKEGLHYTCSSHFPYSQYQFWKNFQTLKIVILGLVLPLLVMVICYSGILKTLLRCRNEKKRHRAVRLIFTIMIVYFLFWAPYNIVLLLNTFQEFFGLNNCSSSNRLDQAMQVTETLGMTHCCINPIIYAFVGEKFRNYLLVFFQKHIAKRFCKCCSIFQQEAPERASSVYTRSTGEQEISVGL
From the text: The mutant i-body clones were also examined for binding to CCR5 positive lipoparticles (FIG. 7B).

MDX-1338: human anti-CXCR4 mAb
induction of apoptosis in Ramos cells [1]: able to induce apoptosis

B1: AM3-114-6H: AM3-114 with 6 His tag, containing the N-terminal sequence EAEA (protein)
chain: EAEALQVDIVPYQGEISVGESKFFLCQVAGSLSGIRISWFSPNGEKLTPNQQRISVVWNDDSSSTLTIYNANIDDAGIYKCVVWRTGGYRHRYLVLGEATVNVKIFQ
modifications: left off: small tags and cut ends
CCL2 protein in IPF fibroblast conditioned supernatants [2]: markedly increased
staining of CCRF-CEM cells in spleen and liver [3]: stained CCRF-CEM cells
invasion of rapid-IPF (fast progressor) lung fibroblasts [4]: two out three
invasion of slow-IPF lung fibroblasts [4]: inhibited invasion
induction of apoptosis in Ramos cells [5]: strongly induce apoptosis
pathological angiogenesis / lesion size [6]: reduces pathological angiogenesis or lesion characteristics
ACTA2, COL1A1, COL3A1 and FN1 transcript expression in slow-IPF lung fibroblasts [7]: markedly reduced

B2: ADCX-272: CXCR4 binding i-body, SEQ ID NO: 14 (protein)
chain: LQVDIVPSQGEISVGESKFFLCQVAGHLEVRSISWFSPNGEKLTPNQQRISVVWNDDSSSTLTIYNANIDDAGIYKCVVEQRGRSQSYFSEATVNVKIFQ
binding to null lipoparticles [8]: very little binding
β-arrestin activity [9]: some degree of inhibition
binding to CCR5 positive lipoparticles [10]: very little binding
